The results in this text go back to US20240263180, “SMALL COMPLEMENTARY NUCLEIC ACIDS, COMPOSITIONS CONTAINING THE SAME, AND METHODS FOR USE AS ANTIVIRALS” (HOWARD UNIVERSITY, published 2024).

Data set [1] has as its target T1, U2AF65 (UniProt P26368 P26368:2-475). As to the kind of experiment: EMSA; native PAGE. As to conditions: label: radiolabel. In general terms: In EMSA bound probe runs differently from free probe, usually more slowly.
Data set [2] concerns the target T1, U2AF65. Description: EMSA. As to conditions: label: radiolabel.

T1 sequence (P26368 2-475, one chain of several): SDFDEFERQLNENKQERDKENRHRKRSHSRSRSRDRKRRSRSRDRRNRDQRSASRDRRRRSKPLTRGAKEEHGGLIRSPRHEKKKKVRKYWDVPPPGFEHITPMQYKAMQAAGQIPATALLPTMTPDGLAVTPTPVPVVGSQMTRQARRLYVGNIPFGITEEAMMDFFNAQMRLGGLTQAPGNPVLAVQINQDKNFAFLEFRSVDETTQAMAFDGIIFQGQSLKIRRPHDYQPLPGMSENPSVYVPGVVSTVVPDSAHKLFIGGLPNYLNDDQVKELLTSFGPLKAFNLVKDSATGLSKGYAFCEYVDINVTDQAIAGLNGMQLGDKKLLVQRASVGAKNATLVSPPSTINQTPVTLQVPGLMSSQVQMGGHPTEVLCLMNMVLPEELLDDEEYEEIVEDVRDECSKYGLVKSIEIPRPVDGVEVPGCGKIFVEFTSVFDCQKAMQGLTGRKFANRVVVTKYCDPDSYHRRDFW

Turning to CACGCCUGUGAAACCGUACUAAGUCUCCCGUGUCUUCUUAUCACCAUCAG (ssRNA) [wt PyA+PyB RNA probe (HCMV MIE intron 4)], the binding result in data set [1] is listed as “binds”.
Regarding CACGCCUGUGAAACCGUACUAAGUCUCCCGUGUCAAGUUAUCACCAUCAG (ssRNA) [dPyB probe], the binding result in data set [2] is reported as “no binding”.
Same read-out and setting: for CACGCCUGUGAAACCGUACUAAGUCAGCCGUGUCAAGUUAUCACCAUCAG (ssRNA) [dPyAB probe] the value was “no binding”.
